The values below come from patent US9931407B2, “Silicon based drug conjugates and methods of using same” (BlinkBio, Inc., priority 2015, dated 2018).

Data set [1] can be described thus: Hydrolysis studies of silicon-linker constructs and conjugates (HEPES buffer, UPLC/MS).
The subject of the next data set is KB cells. The data set is described as follows: Cellular data: KB cell viability (Cell titer-glo luminescence). Format: cell-based. The note with it: for EC50: folate free RPMI, 2 h compound incubation, wash, additional 70 h; for % Kill (48 h): percent cell kill at 48 h. As for the experimental part: KB cells in culture were seeded in white clear bottom 96-well tissue culture plate at a density of 5,000 cells per well in a folate free RPMI media with 10% FBS a day prior to compound addition. Cells were counted visually with a hemocytometer and diluted accordingly to obtain the desired density. Cells were allowed to incubate for 24 hours in a humidified CO2 atmosphere in an incubator at 37° C. The spent media was aspirated and replenished with 100 μL of fresh media containing a 3-fold serial dilution of compound with concentrations ranging from 0.3 to 2000 nM and with a final DMSO concentration of 0.1%. Blank wells without compound were also treated with media containing 0.1% DMSO. […] […] At the end of 70 h, the spent media was removed and cells were washed once with fresh media and then suspended 100 μL of PBS. 100 μL of constituted Cell titer-glo reagent was added to each well and luminescence was recorded with a VICTOR plate reader according to manufacturers' protocol.

Data set [2] relates to Folate receptor alpha expressing KB cells. Description: Imaging study demonstrating endocytosis and Si-O cleavage (confocal microscopy). The note with it: 50 nM. Format: cell-based. As for the experimental part: Example 79 as shown above contains a folate receptor targeting ligand, a spacer moiety, a siloxane core and two different fluorescent dyes (BODIPY and rhodamine) positioned on either side of the siloxane core. Folate receptor alpha expressing KB cells were grown in folic acid free media. The cells were incubated for 30 minutes on ice with 50 nM of Example 79, washed with fresh culture medium and then incubated in media at 37° C. for the desired length of time. The fate of both dyes was simultaneously monitored using confocal microscopy using Zeiss LSM 780 laser scanning microscope.

With `CC[C@]1(O)C[C@H]2CN(CCc3c([nH]c4ccccc34)[C@@](C(=O)OC)(c3cc4c(cc3OC)N(C)[C@H]3[C@@](O)(C(=O)NCCC[Si](C)(C)O[Si](C)(C)CSc5ncc(COCCOCCOCCn6cc(COCC(COCc7cn(CCOCCOCCOCc8cnc(SC[Si](C)(C)O[Si](C)(C)CCCNC(=O)[C@@]9(O)[C@H](O)[C@]%10(CC)C=CCN%11CC[C@@]%12(c%13cc([C@@]%14(C(=O)OC)C[C@@H]%15CN(CCc%16c%14[nH]c%14ccccc%16%14)C[C@](O)(CC)C%15)c(OC)cc%13N(C)[C@@H]9%12)[C@@H]%11%10)nc8)nn7)(COCc7cn(CCOCCOCCOCc8cnc(SC[Si](C)(C)O[Si](C)(C)CCCNC(=O)[C@@]9(O)[C@H](O)[C@]%10(CC)C=CCN%11CC[C@@]%12(c%13cc([C@@]%14(C(=O)OC)C[C@@H]%15CN(CCc%16c%14[nH]c%14ccccc%16%14)C[C@](O)(CC)C%15)c(OC)cc%13N(C)[C@@H]9%12)[C@@H]%11%10)nc8)nn7)NC(=O)CCOCCOCCOCCOCCOCCOCCNC(=O)CC[C@H](NC(=O)c7ccc(NCc8cnc9nc(N)[nH]c(=O)c9n8)cc7)C(=O)O)nn6)cn5)[C@H](O)[C@]5(CC)C=CCN6CC[C@]43[C@@H]65)C2)C1` (stereo partly shown) [Example 82], the half-life was 1 h in data set [1] (pH 5) and greater than 24 h in data set [1] (pH 7.4). The same compound had an EC50 in the data set on KB cells of roughly 0.193 µM. Also, in the data set with KB cells, the “% Kill (48 h)” value is given as 80%.

As to `CCN(CC)c1ccc2c(-c3ccc(S(=O)(=O)NCc4cnc(SC[Si](C)(C)O[Si](C)(C)CCCN5C(=O)CC(SC[C@H](NC(=O)[C@H](CNC(=O)CCC6=[N+]7C(=Cc8c(C)cc(C)n8[B-]7(F)F)C=C6)NC(=O)[C@H](CC(=O)O)NC(=O)CC[C@H](NC(=O)c6ccc(NCc7cnc8nc(N)[nH]c(=O)c8n7)cc6)C(=O)O)C(=O)O)C5=O)nc4)cc3S(=O)(=O)[O-])c3ccc(=[N+](CC)CC)cc-3oc2c1` (stereo partly shown) [Example 79], in data set [2] (37° C., t=30 min), the “Cleavage of the siloxane core (color separation of the two fluorescent dyes)” value is recorded as “cleavage of the siloxane core was observed” and the “Endocytosis of intact conjugate into the cell” value was “endocytosis of intact Example 79 into the cell was observed”. The “Binding to the folate receptor on the cell surface (colocalization of dyes)” value in data set [2] (30 minutes on ice, t=0) is given as “bound to the folate receptor on the cell surface”. In data set [1] (pH 5), this compound returned a half-life of 1.67 h. Also, in data set [1] (pH 7.4), the half-life was greater than 18 h.

In the case of `CC[C@]1(O)C[C@@H]2CN(CCc3c([nH]c4ccccc34)[C@@](C(=O)OC)(c3cc4c(cc3OC)N(C)[C@H]3[C@@](O)(C(=O)NCCC[Si](C)(C)O[Si](C)(C)CSc5ncc(Cn6cc(C[C@H](NC(=O)[C@H](CC(=O)O)NC(=O)[C@H](CC(=O)O)NC(=O)[C@H](CCCNC(=N)N)NC(=O)[C@H](CC(=O)O)NC(=O)CC[C@H](NC(=O)c7ccc(NCc8cnc9nc(N)[nH]c(=O)c9n8)cc7)C(=O)O)C(=O)O)nn6)cn5)[C@H](O)[C@]5(CC)C=CCN6CC[C@]43[C@@H]65)C2)C1` [Example 81], the half-life is 0.583 h in data set [1] (pH 5) and 24 h in data set [1] (pH 7.4). In the data set on KB cells, the “% Kill (48 h)” value turned out to be 86%.

In data set [1] (pH 5), `CC[C@]1(O)C[C@@H]2C[N@@](CCc3c([nH]c4ccccc34)[C@@](C(=O)OC)(c3cc4c(cc3OC)N(C)[C@H]3[C@@](O)(C(=O)NCCC[Si](C)(C)O[Si](C)(C)CSc5ncc(Cn6cc(COCCOCCOCCOCCOCCOCCNC(=O)CC[C@H](NC(=O)c7ccc(NCc8cnc9nc(N)[nH]c(=O)c9n8)cc7)C(=O)O)nn6)cn5)[C@H](O)[C@]5(CC)C=CCN6CC[C@]43[C@@H]65)C2)C1` [Example 80] returned a half-life of 0.75 h. In data set [1] (pH 7.4), this compound showed a half-life of 24 h. In the data set with KB cells, the EC50 was roughly 0.265 µM and the “% Kill (48 h)” value is 84%.

Broadly, the half-life is the time in which the quantity being followed falls by half. Low readings indicate fast loss, high ones slow loss. Broadly, the EC50 is the concentration that produces a half-maximal response. The low end stands for greater potency, the high end for weaker potency.
